According to paper PMC11662670, “Selective recognition of RNA G-quadruplex in vitro and in cells by L-aptamer–D-oligonucleotide conjugate”:

Molecular target: T1, DHX36 (UniProt Q9H2U1 1-1008)
T1 sequence: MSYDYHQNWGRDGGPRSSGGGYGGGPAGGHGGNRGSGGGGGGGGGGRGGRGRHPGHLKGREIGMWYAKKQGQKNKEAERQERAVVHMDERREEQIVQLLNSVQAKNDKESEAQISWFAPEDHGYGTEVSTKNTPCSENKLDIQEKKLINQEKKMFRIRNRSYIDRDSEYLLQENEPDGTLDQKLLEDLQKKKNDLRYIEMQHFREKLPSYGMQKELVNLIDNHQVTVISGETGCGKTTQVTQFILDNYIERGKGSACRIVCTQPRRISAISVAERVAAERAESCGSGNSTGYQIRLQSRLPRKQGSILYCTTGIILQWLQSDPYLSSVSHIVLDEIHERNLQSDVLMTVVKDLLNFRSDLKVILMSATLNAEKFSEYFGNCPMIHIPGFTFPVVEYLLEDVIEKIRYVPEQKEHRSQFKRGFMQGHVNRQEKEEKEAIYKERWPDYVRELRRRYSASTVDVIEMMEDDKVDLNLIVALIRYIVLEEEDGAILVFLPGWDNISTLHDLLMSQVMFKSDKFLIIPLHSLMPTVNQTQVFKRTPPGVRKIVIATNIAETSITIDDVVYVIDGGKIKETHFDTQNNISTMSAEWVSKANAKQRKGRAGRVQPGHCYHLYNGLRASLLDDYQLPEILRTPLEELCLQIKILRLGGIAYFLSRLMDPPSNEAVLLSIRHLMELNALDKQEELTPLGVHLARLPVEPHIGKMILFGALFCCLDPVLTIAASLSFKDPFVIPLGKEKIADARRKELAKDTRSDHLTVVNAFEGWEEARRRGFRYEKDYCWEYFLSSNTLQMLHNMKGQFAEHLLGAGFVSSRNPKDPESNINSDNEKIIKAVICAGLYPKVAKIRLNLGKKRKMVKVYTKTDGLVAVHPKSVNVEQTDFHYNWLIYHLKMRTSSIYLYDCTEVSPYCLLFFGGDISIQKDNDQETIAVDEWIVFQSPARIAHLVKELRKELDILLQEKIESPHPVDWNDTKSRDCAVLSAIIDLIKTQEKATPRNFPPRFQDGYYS
Experiment: EMSA; EMSA: 150 mM KCl, 1 mM MgCl2, 25 mM Tris-HCl pH 7.5, 8% sucrose, 30 min at 37 C; gel at 4 C. Pull-down: same buffer without sucrose, 4 C
Details: protein: commercial; label: 5' HEX; intramolecular rG4 with 3' single-stranded flank

**Q.** GGGGCGGGUGGGGAGGGGUGCUCUGCUGGUCUUCAAUU (structured_RNA) [HEX_APP rG4 wt region] was tested. Which Kd did it give?
**A.** Its Kd is 51.3 ± 10.1 nM.
